Reference: paper PMC11233663, “ZBP1 condensate formation synergizes Z-NAs recognition and signal transduction” (Cell Death & Disease, 2024)
Values belong to the molecule of their own block, whether it stands above or below them.

What was measured:
Thioflavin T (ThT) = assay: ThT binding assay (ThT fluorescence emission spectrum); settings: read off a plot
[1] = target: human ZBP1-Zαβ (residues 1-166) (human) (UniProt Q9H171); assay: dynamic light scattering; ZBP1-Zαβ at 5 mg/mL (high concentration), 20 mM Tris-HCl pH 7.4, 100 mM NaCl, room temperature
[2] = target: human ZBP1-Zαβ (residues 1-166) (human) (UniProt Q9H171); assay: SAXS; ZBP1-Zαβ at 5 mg/mL, 20 mM Tris-HCl pH 7.4, 100 mM NaCl
[3] = target: the molecule itself; assay: negative-staining electron microscopy; purified proteins on carbon films, 0.2% uranyl acetate
[4] = target: the molecule itself; assay: SEC; Superdex 200 10/300, 20 mM Tris-HCl, 1 M NaCl, pH 7.5; elution at the void position
mCherry-ZBP1-Zαβ = target: T1, mCherry-ZBP1-Zαβ (Homo sapiens, UniProt Q9H171 1-166); assay: in vitro co-condensation (microscopy); Z-RNA promotes condensates; EMSA: protein 0, 5, 10, 20 nM with 10 nM dsDNA, on ice 1 h, 6% polyacrylamide; protein and DNA stocks in 20 mM Tris-HCl pH 7.4, 100 mM NaCl; settings: protein: recombinant; tags: mCherry fusion; label: 5'-FAM
T1 sequence: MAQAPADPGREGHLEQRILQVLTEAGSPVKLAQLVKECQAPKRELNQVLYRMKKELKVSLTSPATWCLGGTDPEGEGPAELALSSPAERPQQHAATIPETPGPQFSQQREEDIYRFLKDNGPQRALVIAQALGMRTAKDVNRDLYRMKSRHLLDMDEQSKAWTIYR

response (Thioflavin T (ThT); parent: est. 1900): 1200
Molecule: ZBP1-RHIM1 (residues 168-224) (from UniProt Q9H171) I206A; Q207A; I208A; G209A

response (Thioflavin T (ThT); parent: est. 2300): 880
Molecule: ZBP1-RHIM 1 + 2 (residues 168-280) (from UniProt Q9H171) I206A; Q207A; I208A; G209A

stoichiometry N [1]: 2
stoichiometry N [2]: 2
Molecule: human ZBP1-Zαβ (residues 1-166) (from UniProt Q9H171 1-166) (domain or fragment)

B1: ZBP1-RHIM1 AAAA (domain or fragment, human, UniProt Q9H171 168-224, looked up)
chain: EDSGRRAKSASIIYQHNPINMICQNGPNSWISIANSEAAAAAHGNIITRQTVSREDG
notes: also called 4 A mutant of ZBP1-RHIM 1; 4 A; source: E. coli BL21 Codonplus (DE3)-RIPL, purified (Ni-NTA, Superdex 200 10/300)
binding result [3]: binds

B2: ZBP1-RHIM1 (residues 168-224) (domain or fragment, human, UniProt Q9H171 168-224, looked up)
chain: EDSGRRAKSASIIYQHNPINMICQNGPNSWISIANSEAIQIGHGNIITRQTVSREDG
notes: the tag is inferred from the purification; source: E. coli BL21 Codonplus (DE3)-RIPL, purified (Ni-NTA, Superdex 200 10/300)
binding result [4]: binds

Molecule: ACGCGCGCGCGUUUUUGCGCGCGCGC (structured_RNA, 2'-O-methyl-8-methylguanosine (m8Gm), positions not given) [Z-RNA]
binding result (mCherry-ZBP1-Zαβ): binds

B3: ZBP1-RHIM1 + 2 AAAA (domain or fragment, human, UniProt Q9H171 168-280, looked up)
chain: EDSGRRAKSASIIYQHNPINMICQNGPNSWISIANSEAAAAAHGNIITRQTVSREDGSAGPRHLPSMAPGDSSTWGTLVDPWGPQDIHMEQSILRRVQLGHSNEMRLHGVPSE
notes: also called 4 A mutant of RHIM 1 + 2; 4 A; source: E. coli BL21 Codonplus (DE3)-RIPL, purified (Ni-NTA, Superdex 200 10/300)
binding result [3]: binds

B4: ZBP1-RHIM 1 + 2 (residues 168-280) (domain or fragment, human, UniProt Q9H171 168-280, looked up)
chain: EDSGRRAKSASIIYQHNPINMICQNGPNSWISIANSEAIQIGHGNIITRQTVSREDGSAGPRHLPSMAPGDSSTWGTLVDPWGPQDIHMEQSILRRVQLGHSNEMRLHGVPSE
notes: the tag is inferred from the purification; also called RHIM 1 + 2 high-oligomer seed; source: E. coli BL21 Codonplus (DE3)-RIPL, purified (Ni-NTA, Superdex 200 10/300)
binding result [4]: binds
